Assay results as given in PMC10786891, “Massively parallel profiling of RNA-targeting CRISPR-Cas13d”.

T1: EsCas13d, nuclease-dead (Eubacterium siraeum, UniProt B0MS50, R295A;H300A;R849A;H854A)
T1 sequence: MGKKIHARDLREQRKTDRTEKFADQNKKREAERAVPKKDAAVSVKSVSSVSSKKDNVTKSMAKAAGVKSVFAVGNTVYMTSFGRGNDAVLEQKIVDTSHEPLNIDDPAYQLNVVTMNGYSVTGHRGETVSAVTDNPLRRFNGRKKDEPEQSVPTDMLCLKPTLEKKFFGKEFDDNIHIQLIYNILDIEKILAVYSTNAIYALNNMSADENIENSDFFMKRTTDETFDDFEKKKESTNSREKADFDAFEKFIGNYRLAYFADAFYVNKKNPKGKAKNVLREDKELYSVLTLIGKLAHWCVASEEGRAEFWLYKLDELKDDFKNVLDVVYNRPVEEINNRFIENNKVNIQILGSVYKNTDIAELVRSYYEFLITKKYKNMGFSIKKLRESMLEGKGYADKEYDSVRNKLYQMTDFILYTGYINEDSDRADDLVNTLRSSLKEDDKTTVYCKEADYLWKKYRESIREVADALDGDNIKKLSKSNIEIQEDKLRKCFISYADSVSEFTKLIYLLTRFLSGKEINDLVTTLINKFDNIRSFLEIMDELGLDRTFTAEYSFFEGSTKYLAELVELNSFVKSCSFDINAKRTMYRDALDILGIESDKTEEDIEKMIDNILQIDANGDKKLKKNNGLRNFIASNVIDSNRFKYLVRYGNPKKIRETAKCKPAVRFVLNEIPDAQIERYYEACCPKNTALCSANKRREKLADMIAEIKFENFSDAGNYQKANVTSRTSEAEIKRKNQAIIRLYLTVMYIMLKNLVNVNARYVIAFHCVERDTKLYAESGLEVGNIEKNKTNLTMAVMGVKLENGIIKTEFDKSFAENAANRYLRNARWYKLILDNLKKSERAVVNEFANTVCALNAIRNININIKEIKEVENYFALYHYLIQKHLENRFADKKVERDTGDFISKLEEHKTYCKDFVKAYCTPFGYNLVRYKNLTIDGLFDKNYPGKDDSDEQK


What follows are binders tested against T1, EsCas13d, nuclease-dead (assay: crRNA (strand 1, pre-loaded); Mg2+; 40 mM Tris-HCl pH 7.5, 150 mM NaCl, 6 mM MgCl2, 1 mM DTT, 0.1% Tween-20, 0.2 mg/ml BSA; 25 C; 10 min per concentration, then washed). Settings: tags: His6-TwinStrep-SUMO cleaved; N-terminal SNAP kept (SNAP-Surface 488); label: 3' end held by stalled T7 RNA polymerase.

Row | Binder | Kd [nM]
1 | target 1 insC 3' of 20,insA 3' of 4 (mixed) RNA 1: CACCCGUGCAAAAAUGCAGGGGUCUAAAACUGAGCGGAUAACCUCUCUAUGG RNA 2: GGGAAUGGAUCCACAUCUACGAAUUCGUACCACUAGAGAGGUUAUCCGCAUCACCGAGAUCGGAAGAGCACACGU | 6.4 ± 0.4
2 | target 1 U11G,A20U (mixed) RNA 1: CACCCGUGCAAAAAUGCAGGGGUCUAAAACUGAGCGGAUAACCUCUCUAUGG RNA 2: GGGAAUGGAUCCACAUCUACGAAUUCGUACCUUAGAGAGGGUAUCCGCUCACCGAGAUCGGAAGAGCACACGU | 77 ± 24
3 | target 1 A9G,G12A (mixed) RNA 1: CACCCGUGCAAAAAUGCAGGGGUCUAAAACUGAGCGGAUAACCUCUCUAUGG RNA 2: GGGAAUGGAUCCACAUCUACGAAUUCGUACCAUAGAGAGAUUGUCCGCUCACCGAGAUCGGAAGAGCACACGU | 6.8 ± 0.5
4 | target 1 G12A,G15A (mixed) RNA 1: CACCCGUGCAAAAAUGCAGGGGUCUAAAACUGAGCGGAUAACCUCUCUAUGG RNA 2: GGGAAUGGAUCCACAUCUACGAAUUCGUACCAUAGAAAGAUUAUCCGCUCACCGAGAUCGGAAGAGCACACGU | 20 ± 2.3
5 | target 1 insA 3' of 22,insG 3' of 6 (mixed) RNA 1: CACCCGUGCAAAAAUGCAGGGGUCUAAAACUGAGCGGAUAACCUCUCUAUGG RNA 2: GGGAAUGGAUCCACAUCUACGAAUUCGUACACAUAGAGAGGUUAUCCGGCUCACCGAGAUCGGAAGAGCACACGU | 17.4 ± 1.6
6 | target 1 insA 3' of 22,insC 3' of 20 (mixed) RNA 1: CACCCGUGCAAAAAUGCAGGGGUCUAAAACUGAGCGGAUAACCUCUCUAUGG RNA 2: GGGAAUGGAUCCACAUCUACGAAUUCGUACACACUAGAGAGGUUAUCCGCUCACCGAGAUCGGAAGAGCACACGU | 5.9 ± 0.23
7 | target 1 C4A,U8G (mixed) RNA 1: CACCCGUGCAAAAAUGCAGGGGUCUAAAACUGAGCGGAUAACCUCUCUAUGG RNA 2: GGGAAUGGAUCCACAUCUACGAAUUCGUACCAUAGAGAGGUUAGCCGAUCACCGAGAUCGGAAGAGCACACGU | 10.3 ± 0.7
8 | target 1 U8A,A14G (mixed) RNA 1: CACCCGUGCAAAAAUGCAGGGGUCUAAAACUGAGCGGAUAACCUCUCUAUGG RNA 2: GGGAAUGGAUCCACAUCUACGAAUUCGUACCAUAGAGGGGUUAACCGCUCACCGAGAUCGGAAGAGCACACGU | 31.1 ± 1.6
9 | target 1 C2G,G15A (mixed) RNA 1: CACCCGUGCAAAAAUGCAGGGGUCUAAAACUGAGCGGAUAACCUCUCUAUGG RNA 2: GGGAAUGGAUCCACAUCUACGAAUUCGUACCAUAGAAAGGUUAUCCGCUGACCGAGAUCGGAAGAGCACACGU | 14.2 ± 1.5
10 | target 1 insC 3' of 15,insG 3' of 7 (mixed) RNA 1: CACCCGUGCAAAAAUGCAGGGGUCUAAAACUGAGCGGAUAACCUCUCUAUGG RNA 2: GGGAAUGGAUCCACAUCUACGAAUUCGUACCAUAGAGCAGGUUAUCGCGCUCACCGAGAUCGGAAGAGCACACGU | 17.5 ± 1.2
11 | target 1 insG 3' of 18,insU 3' of 18 (mixed) RNA 1: CACCCGUGCAAAAAUGCAGGGGUCUAAAACUGAGCGGAUAACCUCUCUAUGG RNA 2: GGGAAUGGAUCCACAUCUACGAAUUCGUACCAUAGUGAGAGGUUAUCCGCUCACCGAGAUCGGAAGAGCACACGU | 68 ± 11
12 | target 1 insA 3' of 7,insA 3' of 5 (mixed) RNA 1: CACCCGUGCAAAAAUGCAGGGGUCUAAAACUGAGCGGAUAACCUCUCUAUGG RNA 2: GGGAAUGGAUCCACAUCUACGAAUUCGUACCAUAGAGAGGUUAUCACGACUCACCGAGAUCGGAAGAGCACACGU | 7.21 ± 0.35
13 | target 1 insA 3' of 11,insG 3' of 9 (mixed) RNA 1: CACCCGUGCAAAAAUGCAGGGGUCUAAAACUGAGCGGAUAACCUCUCUAUGG RNA 2: GGGAAUGGAUCCACAUCUACGAAUUCGUACCAUAGAGAGGUAUAGUCCGCUCACCGAGAUCGGAAGAGCACACGU | 23.7 ± 2
14 | target 1 insU 3' of 13,insA 3' of 8 (mixed) RNA 1: CACCCGUGCAAAAAUGCAGGGGUCUAAAACUGAGCGGAUAACCUCUCUAUGG RNA 2: GGGAAUGGAUCCACAUCUACGAAUUCGUACCAUAGAGAGUGUUAUACCGCUCACCGAGAUCGGAAGAGCACACGU | 14.1 ± 0.7
15 | target 1 insA 3' of 2,insU 3' of 2 (mixed) RNA 1: CACCCGUGCAAAAAUGCAGGGGUCUAAAACUGAGCGGAUAACCUCUCUAUGG RNA 2: GGGAAUGGAUCCACAUCUACGAAUUCGUACCAUAGAGAGGUUAUCCGCUCAUACCGAGAUCGGAAGAGCACACGU | 12 ± 0.7
16 | target 1 complement block 8-10 (mixed) RNA 1: CACCCGUGCAAAAAUGCAGGGGUCUAAAACUGAGCGGAUAACCUCUCUAUGG RNA 2: GGGAAUGGAUCCACAUCUACGAAUUCGUACCAUAGAGAGGUAUACCGCUCACCGAGAUCGGAAGAGCACACGU | 30.9 ± 2.1
17 | target 1 C6A,G15U (mixed) RNA 1: CACCCGUGCAAAAAUGCAGGGGUCUAAAACUGAGCGGAUAACCUCUCUAUGG RNA 2: GGGAAUGGAUCCACAUCUACGAAUUCGUACCAUAGAUAGGUUAUCAGCUCACCGAGAUCGGAAGAGCACACGU | 27.5 ± 1.6
18 | target 1 insG 3' of 22,insG 3' of 22 (mixed) RNA 1: CACCCGUGCAAAAAUGCAGGGGUCUAAAACUGAGCGGAUAACCUCUCUAUGG RNA 2: GGGAAUGGAUCCACAUCUACGAAUUCGUACGGCAUAGAGAGGUUAUCCGCUCACCGAGAUCGGAAGAGCACACGU | 34.6 ± 2.2
19 | target 1 del13,del19 (mixed) RNA 1: CACCCGUGCAAAAAUGCAGGGGUCUAAAACUGAGCGGAUAACCUCUCUAUGG RNA 2: GGGAAUGGAUCCACAUCUACGAAUUCGUACCAAGAGAGUUAUCCGCUCACCGAGAUCGGAAGAGCACACGU | 80 ± 28
20 | target 1 insA 3' of 15,insU 3' of 15 (mixed) RNA 1: CACCCGUGCAAAAAUGCAGGGGUCUAAAACUGAGCGGAUAACCUCUCUAUGG RNA 2: GGGAAUGGAUCCACAUCUACGAAUUCGUACCAUAGAGAUAGGUUAUCCGCUCACCGAGAUCGGAAGAGCACACGU | 15.7 ± 1.2
21 | target 1 G5C,U19A (mixed) RNA 1: CACCCGUGCAAAAAUGCAGGGGUCUAAAACUGAGCGGAUAACCUCUCUAUGG RNA 2: GGGAAUGGAUCCACAUCUACGAAUUCGUACCAAAGAGAGGUUAUCCCCUCACCGAGAUCGGAAGAGCACACGU | 34.1 ± 3
22 | target 1 insG 3' of 8,insA 3' of 5 (mixed) RNA 1: CACCCGUGCAAAAAUGCAGGGGUCUAAAACUGAGCGGAUAACCUCUCUAUGG RNA 2: GGGAAUGGAUCCACAUCUACGAAUUCGUACCAUAGAGAGGUUAUGCCGACUCACCGAGAUCGGAAGAGCACACGU | 11.5 ± 0.5
23 | target 1 U10G,G12U (mixed) RNA 1: CACCCGUGCAAAAAUGCAGGGGUCUAAAACUGAGCGGAUAACCUCUCUAUGG RNA 2: GGGAAUGGAUCCACAUCUACGAAUUCGUACCAUAGAGAGUUGAUCCGCUCACCGAGAUCGGAAGAGCACACGU | 20 ± 4
24 | target 1 insU 3' of 18,insA 3' of 3 (mixed) RNA 1: CACCCGUGCAAAAAUGCAGGGGUCUAAAACUGAGCGGAUAACCUCUCUAUGG RNA 2: GGGAAUGGAUCCACAUCUACGAAUUCGUACCAUAUGAGAGGUUAUCCGCUACACCGAGAUCGGAAGAGCACACGU | 20.7 ± 0.7
25 | target 1 insU 3' of 5,insG 3' of 1 (mixed) RNA 1: CACCCGUGCAAAAAUGCAGGGGUCUAAAACUGAGCGGAUAACCUCUCUAUGG RNA 2: GGGAAUGGAUCCACAUCUACGAAUUCGUACCAUAGAGAGGUUAUCCGUCUCAGCCGAGAUCGGAAGAGCACACGU | 7.4 ± 0.6
26 | target 1 G12U,C22A (mixed) RNA 1: CACCCGUGCAAAAAUGCAGGGGUCUAAAACUGAGCGGAUAACCUCUCUAUGG RNA 2: GGGAAUGGAUCCACAUCUACGAAUUCGUAACAUAGAGAGUUUAUCCGCUCACCGAGAUCGGAAGAGCACACGU | 19.7 ± 1
27 | target 1 insA 3' of 11,insG 3' of 11 (mixed) RNA 1: CACCCGUGCAAAAAUGCAGGGGUCUAAAACUGAGCGGAUAACCUCUCUAUGG RNA 2: GGGAAUGGAUCCACAUCUACGAAUUCGUACCAUAGAGAGGUAGUAUCCGCUCACCGAGAUCGGAAGAGCACACGU | 12.4 ± 0.4
28 | target 1 C6A,A9C (mixed) RNA 1: CACCCGUGCAAAAAUGCAGGGGUCUAAAACUGAGCGGAUAACCUCUCUAUGG RNA 2: GGGAAUGGAUCCACAUCUACGAAUUCGUACCAUAGAGAGGUUCUCAGCUCACCGAGAUCGGAAGAGCACACGU | 23 ± 1.5
